Measurements as given in patent US20210347832.

Tests used:
[1] = tested on: T1, C16-CathS-SIINFEKL
T1 sequence: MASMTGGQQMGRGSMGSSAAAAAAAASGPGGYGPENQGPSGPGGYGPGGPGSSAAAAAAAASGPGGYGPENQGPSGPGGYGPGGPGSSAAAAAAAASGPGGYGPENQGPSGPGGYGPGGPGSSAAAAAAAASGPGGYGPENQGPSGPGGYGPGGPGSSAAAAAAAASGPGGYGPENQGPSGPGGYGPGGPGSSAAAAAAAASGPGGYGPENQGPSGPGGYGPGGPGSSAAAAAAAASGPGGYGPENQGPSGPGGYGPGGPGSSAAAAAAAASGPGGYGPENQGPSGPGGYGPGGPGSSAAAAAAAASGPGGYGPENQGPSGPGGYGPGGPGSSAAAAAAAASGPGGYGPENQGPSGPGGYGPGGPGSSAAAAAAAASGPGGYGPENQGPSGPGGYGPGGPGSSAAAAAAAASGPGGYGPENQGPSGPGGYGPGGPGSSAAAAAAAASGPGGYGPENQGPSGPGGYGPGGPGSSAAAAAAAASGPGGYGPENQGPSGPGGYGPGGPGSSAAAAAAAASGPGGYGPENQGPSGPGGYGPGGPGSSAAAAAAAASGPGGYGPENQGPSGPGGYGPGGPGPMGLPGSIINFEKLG

[2] = tested on: T2, C16-CathB-SIINFEKL
T2 sequence: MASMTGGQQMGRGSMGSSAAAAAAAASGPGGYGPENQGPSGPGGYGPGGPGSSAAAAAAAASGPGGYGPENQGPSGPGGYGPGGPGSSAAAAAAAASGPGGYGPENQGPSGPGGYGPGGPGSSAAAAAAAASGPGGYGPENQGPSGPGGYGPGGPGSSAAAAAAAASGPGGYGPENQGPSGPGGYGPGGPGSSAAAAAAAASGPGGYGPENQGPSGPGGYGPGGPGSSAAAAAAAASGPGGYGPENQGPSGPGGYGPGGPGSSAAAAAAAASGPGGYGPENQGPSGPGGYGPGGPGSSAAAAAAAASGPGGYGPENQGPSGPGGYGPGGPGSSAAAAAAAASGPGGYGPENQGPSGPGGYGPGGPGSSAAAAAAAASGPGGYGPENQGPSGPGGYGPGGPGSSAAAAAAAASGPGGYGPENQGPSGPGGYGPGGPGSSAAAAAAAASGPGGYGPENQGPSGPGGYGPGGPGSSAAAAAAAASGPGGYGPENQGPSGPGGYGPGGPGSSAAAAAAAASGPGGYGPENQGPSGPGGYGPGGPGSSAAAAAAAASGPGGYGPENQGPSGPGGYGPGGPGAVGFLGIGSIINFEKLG

Substance	release of cleaved SIINFEKL peptide from particles (RP-HPLC, 96 h) [1]	release of cleaved SIINFEKL peptide from particles (RP-HPLC, 96 h) [2]	release of cleaved SIINFEKL peptide from particles (RP-HPLC, 1-96 h) [1]	release of cleaved SIINFEKL peptide from particles (RP-HPLC, 1-96 h) [2]
cathepsin B enzyme	Cathepsin S enzyme shows the better cleavage of SIINFEKL (SEQ ID NO: 11) peptides from both C16 hybrid protein particles than cathepsin B	Cathepsin S enzyme shows the better cleavage of SIINFEKL (SEQ ID NO: 11) peptides from both C16 hybrid protein particles than cathepsin B	–	–
cathepsin S enzyme	–	–	Cathepsin S enzyme shows the better cleavage of SIINFEKL (SEQ ID NO: 11) peptides from both hybrid polypeptide particles	Cathepsin S also cleaves SIINFEKL (SEQ ID NO: 11) peptides from particles designed for cathepsin B release, but slower and in a lesser extent
